# Publication PMC9943658
# Key:
# His-T7-hnRNP C1 ΔACIDIC = His-T7-hnRNP C1 ΔACIDIC (UniProt P07910); assay: SEC
# His-T7-hnRNP C1 ΔRRM = His-T7-hnRNP C1 ΔRRM (UniProt P07910); assay: SEC
Substance,stoichiometry N (His-T7-hnRNP C1 ΔACIDIC),stoichiometry N (His-T7-hnRNP C1 ΔRRM)
His-T7-hnRNP C1 ΔACIDIC (from UniProt P07910-2 1-293) (natural protein),2,–
His-T7-hnRNP C1 ΔRRM (from UniProt P07910-2 1-293) (natural protein),–,4
